According to patent publication US20080207498A1, “Methods for Treating Alzheimer's Disease” (priority 2005, published 2008):
No end group written: not given here.

These binders were tested against Preformed immune complex of peroxidase and rabbit anti-peroxidase IgG (PAP complex) (horseradish) (UniProt P00433) (assay: competition reverse ELISA: PAP pre-incubated with peptide, residual PAP binding to C1q-coated plate).
Preformed immune complex of peroxidase and rabbit anti-peroxidase IgG (PAP complex) (horseradish), sequence (P00433 31-338, one chain of several): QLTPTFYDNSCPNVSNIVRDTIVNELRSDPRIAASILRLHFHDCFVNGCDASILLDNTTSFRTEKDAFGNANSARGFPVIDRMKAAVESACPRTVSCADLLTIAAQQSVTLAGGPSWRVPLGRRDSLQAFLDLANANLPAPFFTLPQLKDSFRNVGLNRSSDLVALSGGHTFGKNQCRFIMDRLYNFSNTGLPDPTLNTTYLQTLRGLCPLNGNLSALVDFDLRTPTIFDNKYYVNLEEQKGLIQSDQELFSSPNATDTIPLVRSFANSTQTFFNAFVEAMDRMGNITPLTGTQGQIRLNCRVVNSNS

| OD 405 nm | Binder |
| --- | --- |
| 0.859 OD | DCAFHLGELVWCT [Peptide … (SEQ ID NO:3)] |
| 0.983 OD | APPCAFHLGELVWCT (not fully specified; cysteine pairing not given here) [Peptide … (SEQ ID NO:15)] |
| 1.15 OD | APPCAWHLGELVWCT (not fully specified; cysteine pairing not given here) [Peptide … (SEQ ID NO:13)] |
| 0.567 OD | APPCARHLGELVWCT (not fully specified; cysteine pairing not given here) [Peptide … (SEQ ID NO:14)] |
| 0.389 OD | APPDCAWHLGELVWCT [Peptide … (SEQ ID NO:16)] |

What follows are binders tested against Preformed immune complex of peroxidase and rabbit anti-peroxidase IgG (PAP complex) (horseradish) (UniProt P00433) (assay: competition reverse ELISA: PAP pre-incubated with peptide, residual PAP binding to FcγIII-coated plate).

| OD 405 nm | Binder |
| --- | --- |
| 0.81 OD | DCAFHLGELVWCT [Peptide … (SEQ ID NO:3)] |
| 0.88 OD | APPCAFHLGELVWCT (not fully specified; cysteine pairing not given here) [Peptide … (SEQ ID NO:15)] |
| 0.53 OD | APPCAWHLGELVWCT (not fully specified; cysteine pairing not given here) [Peptide … (SEQ ID NO:13)] |
| 0.709 OD | APPCARHLGELVWCT (not fully specified; cysteine pairing not given here) [Peptide … (SEQ ID NO:14)] |
| 0.67 OD | APPDCAWHLGELVWCT [Peptide … (SEQ ID NO:16)] |

Each binder was assayed against Preformed immune complex of peroxidase and rabbit anti-peroxidase IgG (PAP complex) (horseradish) (UniProt P00433) (assay: competition reverse ELISA: PAP pre-incubated with peptide, residual PAP binding to FcγIIa-coated plate).

| OD 405 nm | Binder |
| --- | --- |
| 0.66 OD | DCAFHLGELVWCT [Peptide … (SEQ ID NO:3)] |
| 0.605 OD | APPCAFHLGELVWCT (not fully specified; cysteine pairing not given here) [Peptide … (SEQ ID NO:15)] |
| 0.658 OD | APPCAWHLGELVWCT (not fully specified; cysteine pairing not given here) [Peptide … (SEQ ID NO:13)] |
| 0.956 OD | APPCARHLGELVWCT (not fully specified; cysteine pairing not given here) [Peptide … (SEQ ID NO:14)] |
| 0.509 OD | APPDCAWHLGELVWCT [Peptide … (SEQ ID NO:16)] |

These binders were tested against Preformed immune complex of peroxidase and rabbit anti-peroxidase IgG (PAP complex) (horseradish) (UniProt P00433) (assay: competition reverse ELISA: PAP pre-incubated with peptide, residual PAP binding to FcγIIb-coated plate).

| OD 405 nm | Binder |
| --- | --- |
| 0.51 OD | DCAFHLGELVWCT [Peptide … (SEQ ID NO:3)] |
| 0.38 OD | APPCAFHLGELVWCT (not fully specified; cysteine pairing not given here) [Peptide … (SEQ ID NO:15)] |
| 0.562 OD | APPCAWHLGELVWCT (not fully specified; cysteine pairing not given here) [Peptide … (SEQ ID NO:13)] |
| 0.768 OD | APPCARHLGELVWCT (not fully specified; cysteine pairing not given here) [Peptide … (SEQ ID NO:14)] |
| 0.496 OD | APPDCAWHLGELVWCT [Peptide … (SEQ ID NO:16)] |

The binders below were run against Preformed immune complex of peroxidase and rabbit anti-peroxidase IgG (PAP complex) (horseradish) (UniProt P00433) (assay: competition reverse ELISA: PAP pre-incubated with peptide, residual PAP binding to plate coated with human wt tau).

| OD 405 nm | Binder |
| --- | --- |
| 0.059 OD | APPDCAWHLGELVWCT [Peptide … (SEQ ID NO:16)] |

What follows are binders tested against Preformed immune complex of peroxidase and rabbit anti-peroxidase IgG (PAP complex) (horseradish) (UniProt P00433) (assay: competition reverse ELISA: PAP pre-incubated with peptide, residual PAP binding to plate coated with human wt β amyloid peptide 1-40).

| OD 405 nm | Binder |
| --- | --- |
| 0.885 OD | APPDCAWHLGELVWCT [Peptide … (SEQ ID NO:16)] |
